Results: PMC11303537, “Deciphering the allosteric regulation of mycobacterial inosine-5′-monophosphate dehydrogenase” (Nature Communications, 2024)
Several values for one entry are separate records, joined by “and”; a condition that tells them apart may be missing. Identical values can stand only once.

Molecular target: the molecule itself
Experiment: cryo-EM structure; single-particle cryo-EM, MsmIMPDH octamer ~2.5-3.5 µM, 50 mM HEPES pH 7.4, 200 mM KCl, 5 mM DTT, 2 mM MgCl2 excess over nucleotides; datasets apo, ATP, ATP+IMP, ATP+GTP+IMP, ATP+ppGpp+IMP

B1: inosine-5′-monophosphate dehydrogenase from Mycobacterium smegmatis (enzyme, Mycobacterium smegmatis MC2 155, UniProt A0QSU3 1-513, looked up)
chain: MSIAESSVPIAVPVPTGGDDPTKVAMLGLTFDDVLLLPAASDVVPATADTSSQLTKRIRLRVPLVSSAMDTVTESRMAIAMARAGGMGVLHRNLPVAEQAGQVETVKRSEAGMVTDPVTCSPDNTLAEVDAMCARFRISGLPVVDDTGELVGIITNRDMRFEVDQSKPVSEVMTKAPLITAKEGVSAEAALGLLRRHKIEKLPIVDGHGKLTGLITVKDFVKTEQFPLSTKDSDGRLLVGAAVGVGDDAWTRAMTLVDAGVDVLIVDTAHAHNRGVLDMVSRLKQAVGERVDVVGGNVATRAAAAALVEAGADAVKVGVGPGSICTTRVVAGVGAPQITAILEAVAACKPYGVPVIADGGLQYSGDIAKALAAGASTAMLGSLLAGTAESPGELIFVNGKQFKSYRGMGSLGAMQGRGAAKSYSKDRYFQDDVLSEDKLVPEGIEGRVPFRGPLGTVIHQLTGGLRAAMGYTGSATIEQLQQAQFVQITAAGLKESHPHDITMTVEAPNYYTR
notes: also called MsmIMPDH; MsmGuaB2; source: E. coli BL21 RIL LOBSTR, purified (HisTrap, TEV cleavage, second HisTrap, HiTrap Q, Superdex 200); not shown: His6, N-terminal, cleaved
  stoichiometry N: 8 and 4
